From patent publication US20170096478A1, “THERAPEUTIC AGENT FOR INFLAMMATORY DISEASE” (Josai University Corporation, priority 2012, published 2017)

Legend:
histone H2A = assay: ELISA affinity for histone H2A; type: binding; conditions: absorbance at 405 nm; 5 μg/mL antibody; compared with histone H1
Procedure: (§1) The Affinities between histone H1 or core histone and SSVmAb were determined by ELISA.
(§2) A 96 well microplate was coated with histone H1, H2A, H2B, H3 or H4. Each histone used was dissolved in 100 mM sodium carbonate buffer (pH 9.3). The plate was washed with PBS-tween 20 (0.05%), and blocked with 3% skim milk and 1% BSA for 1 hour. To each well, 5 μg/mL SSVmAb was added, and incubated for 1 hour. Bound SSVmAb was detected using peroxidase (HRP) conjugated anti mouse IgG1 Ab (SIGMA), and incubated for 1 hour. Bound SSVmAb was detected using the ABTS [2,2′-azino-bis(3-ethylbenzothiazoline-sulfonic acid)] substrate solution, and absorbance at 405 nm was measured using Multiskan Ascent (Thermo Fisher Scientific Inc., Waltham, Mass.).

histone H2B = assay: ELISA affinity for histone H2B; type: binding; conditions: absorbance at 405 nm; 5 μg/mL antibody; compared with histone H1
Procedure: as §1, §2

histone H3 = assay: ELISA affinity for histone H3; type: binding; conditions: absorbance at 405 nm, 5 μg/mL antibody, compared with histone H1
Procedure: as §1, §2
After the end of the tests, binding assays of SSV mAb with histone H1, histone H3 and histone H4 were carried out by ELISA in the same manner as Test Example 2.

[1] = system: T cells from a Balb/c mouse; assay: MLR tests with T cells with or without mitochondria ATP synthase knock-down by siRNA; type: cell-based
[2] = system: lipopolysaccharide (LPS)-induced lethal sepsis; assay: Test Example 8-1: survival in LPS-induced lethal sepsis; type: in vivo, BALB/c mice
Procedure: (§3) BALB/c mice (bodyweight of 20 g to 30 g when starting the experiments, n=10) were raised in a plastic cage under SPF and thermo-hydrostat (22±1° C., 55±5%) conditions under 12-hour light-dark cycle. Foods and water were supplied ad libitum. Then, by intraperitoneally administering LPS to the mice at a dose of 40 mg/kg, lipopolysaccharide (LPS)-induced lethal sepsis as an inflammatory disease was induced in the same manner as Test Example 7. SSV mAb dissolved in physiological saline was intraperitoneally administered totally 3 times, i.e., at 30 minutes before, 6 hours after and 12 hours after the intraperitoneal administration of LPS, in an amount of 100 μg/dose in terms of the amount of SSV mAb. The survival of the animals thereafter was tested. To the control group, IgG (SIGMA) dissolved in physiological saline was administered in place of SSV mAb in the same manner.

[3] = system: lipopolysaccharide (LPS)-induced lethal sepsis; assay: Test Example 8-2: histone concentration in serum and inflammatory tissue (lung); type: in vivo, BALB/c mice
Procedure: as §3
In Test Example 8, heart-derived blood or lung tissue was obtained from control group and SSV mAb-administered group under general anesthesia according to the method conducted by Hasegawa et al. (Surg Res. 2012 May 1; 174(1):136-41.). The concentration of histone H1, histone H3 and H4 of the obtained samples were measured by using a commercially available measurement kit using ELISA.

[4] = system: lipopolysaccharide (LPS)-induced lethal sepsis; assay: Test Example 8-4: evaluation of congestion, edema, inflammation and bleeding; type: in vivo, BALB/c mice; conditions: vs control group
Procedure: as §3
After the end of Test Example 8, scores of congestion, edema, inflammation and bleeding were evaluated according to the method of Murakami et al. (Shock, 18 (2002), p. 236). In particular, magnified images of 24 visual fields under a microscope were subjected to observation. The degrees of deterioration of congestion, edema and inflammation in the SSV mAb-administered group and the control group were evaluated on a 5-point scale ranging from 0 to 4 (4 is the highest deterioration).

[5] = system: lipopolysaccharide (LPS)-induced lethal sepsis; assay: Test Example 8-5: measurement of inflammation-associated cytokine in serum; type: in vivo, BALB/c mice; conditions: vs control group
Procedure: as §3
In Test Example 8, serum was obtained from venous blood of the control group and the SSV mAb-administered group every 3 hours. Then, the concentrations of inflammatory cytokine (TNF-α, IL-1β, IL-6) and inhibitory cytokine (IL-10) in obtained samples were measured by using a commercially available measurement kit using ELISA.

[6] = system: renal ischemia reperfusion injury; assay: Test Example 9: acute renal failure due to renal ischemia reperfusion injury, check test 1; type: in vivo, male Wistar rat; conditions: autopsy after the end of the test; vs control group
Procedure: Right kidney was removed from male Wistar rat (n=4) under general anesthesia, and then left kidney of the rat was subjected to ischemia reperfusion with vascular clip to prepare a model. For SSV mAb-administered group, SSV mAb was then administered in an amount of 10 mg/kg 30 minutes before preparing the model and immediately after the reperfusion For control group, IgG (SIGMA) was administered in place of SSV mAb in the same manner. Then, urea nitrogen (BUN) and creatinine (Cr) in serum at 24 hours after preparing the model were measured and the nephropathy level was evaluated. Further, the rats were subjected to autopsy after the end of the test, and histological evaluation was performed.

[7] = system: renal ischemia reperfusion injury; assay: Test Example 10: acute renal failure due to renal ischemia reperfusion injury, check test 2; type: in vivo, male Wistar rats; conditions: autopsy after the end of the test; vs control group
Procedure: Right kidney was removed from male Wistar rat (n=4) under general anesthesia, and then left kidney of the rat was subjected to ischemia reperfusion with vascular clip to prepare a model. For SSV mAb-administered group, SSV mAb was then administered in an amount of 10 mg/kg 30 minutes before preparing the model and immediately after the reperfusion Test was carried out in the same manner as Test Example 10 except that male Wistar rats (n=4-6) were used and except that, for SSV mAb-administered group, SSV mAb was administered in an amount of 10 mg/kg 30 minutes before preparing the model and 6 hours after the reperfusion. For control, IgG (SIGMA) was administered in place of SSV mAb in the same manner. Then, the concentrations of urea nitrogen (BUN) and creatinine (Cr) in serum at 24 hours after preparing the model were measured and the nephropathy level was evaluated. Further, the rats were subjected to autopsy after the end of the test, and histological evaluation was performed.

B1: SSV mAb: monoclonal antibody (IgG1) produced by Mouse-Mouse hybridoma SSV-C 93-3 (NITE BP-972), raised against peptide … (SEQ ID NO:1)-KLH conjugate (antibody, V domains shown)
VH: EIQLQQSGAELVKPGASVKISCKASGYSFTGYNMNWVKQSHGKSLEWIGNINPYYGSTSYNQKFKGKATLTVDKSSSTAYMQLNSLTSEDSAVYYCARSPYYSNYWRYFDYWGQGTTLTVSS
VL: QIVLSQSPAILSASPGEKVTMTCRASSSVSYMHWYQQKPGSSPKPWIYATSNLASGVPARFSGSGSGTSYSLTISRVEAEDAATYYCQQWSSNPWTFGGGTKLEIK
- affinity for histone H2A (ELISA) (histone H2A): higher than the affinity for histone H1
- affinity for histone H2B (ELISA) (histone H2B): higher than the affinity for histone H1
- affinity for histone H3 (ELISA) (histone H3): binding capacity
- affinity for histone H3 (ELISA) (histone H3; listed as SSVmAb): higher than the affinity for histone H1
- cell growth inhibition in MLR compared with Isotype IgG1 ([1]; ATP synthase knocked down): no significant difference
- cell growth inhibition in MLR compared with Isotype IgG1 ([1]; ATP synthase not knocked down): significantly inhibited cell growth
- survival rate ([2]; 24 hours after administration of LPS 40 mg/kg i.p., 100 μg/dose i.p. 3 times): 70%
- survival rate relative to that of the control group ([2]; 70 hours after administration of LPS, p<0.05): about 3.5 times
- concentration of histone H3 in blood sample ([3]; FIG. 10A, vs control group): lower than the control group
- concentration of histone H3 in inflammatory tissue (lung) ([3]; FIG. 10B, vs control group): lower than the control group
- concentration of histone H1 in blood sample ([3]; serum, during the test): almost kept constant without increase
- concentration of histone H3 in blood sample ([3]; stated under the histone H4 results, FIG. 11A, vs control group): tend to be lower than the control group
- concentration of histone H3 in inflammatory tissue (lung) ([3]; stated under the histone H4 results, FIG. 11B, vs control group): tend to be lower than the control group
- concentration of histone H1 in inflammatory tissue (lung) ([3]; vs control group): more significantly decreased than that from the control group
- score of congestion ([4]; 5-point scale 0 to 4): significantly lower
- score of edema ([4]; 5-point scale 0 to 4): significantly lower
- score of inflammation ([4]; 5-point scale 0 to 4): significantly lower
- score of bleeding [4]: significantly lower
- IL-1β concentration in blood sample [5]: significantly decreased
- IL-6 concentration in blood sample [5]: significantly decreased
- IL-10 concentration in blood sample [5]: significantly increased
- TNF-α concentration in blood sample [5]: significantly decreased
- histological evaluation of kidney [6]: better than that of the control group
- histological evaluation of kidney [7]: better than that of the control group
